B1: substrate-1 (RNA-1/Cy5 DNA) (DNA:RNA)
RNA: GGCACCAACACAAAACACAUCUACACUCAACAAU
DNA: GTAGATGTGTTTTGTGTTGGTGCC
B2: substrate-4 (RNA-4/Cy5 DNA) (mixed)
DNA 1: GGCACCAACACAAAACACATCTACACUCAACAAUCACUUU
DNA 2: GTAGATGTGTTTTGTGTTGGTGCC
modifications: strand 1 RNA with DNA at nt 17-24 (duplex end proximal to overhang)
B3: substrate-5 (RNA-5/Cy5 DNA) (mixed)
RNA: GGCACCAACACAAAACACAUCUACACUCAACAAUCACUUU
DNA: GTAGATGTGTTTTGTGTTGGTGCC
modifications: strand 1 RNA with DNA at nt 9-16 (middle of duplex)

Molecular target: Prp43p;Ntr1p (1-120) (Saccharomyces cerevisiae (budding …, UniProt P53131;Q06411 1-767;1-120, |))
Test: EMSA

Sequence of Prp43p;Ntr1p (1-120) (Saccharomyces cerevisiae (P53131 whole entry, chain 1 of 2): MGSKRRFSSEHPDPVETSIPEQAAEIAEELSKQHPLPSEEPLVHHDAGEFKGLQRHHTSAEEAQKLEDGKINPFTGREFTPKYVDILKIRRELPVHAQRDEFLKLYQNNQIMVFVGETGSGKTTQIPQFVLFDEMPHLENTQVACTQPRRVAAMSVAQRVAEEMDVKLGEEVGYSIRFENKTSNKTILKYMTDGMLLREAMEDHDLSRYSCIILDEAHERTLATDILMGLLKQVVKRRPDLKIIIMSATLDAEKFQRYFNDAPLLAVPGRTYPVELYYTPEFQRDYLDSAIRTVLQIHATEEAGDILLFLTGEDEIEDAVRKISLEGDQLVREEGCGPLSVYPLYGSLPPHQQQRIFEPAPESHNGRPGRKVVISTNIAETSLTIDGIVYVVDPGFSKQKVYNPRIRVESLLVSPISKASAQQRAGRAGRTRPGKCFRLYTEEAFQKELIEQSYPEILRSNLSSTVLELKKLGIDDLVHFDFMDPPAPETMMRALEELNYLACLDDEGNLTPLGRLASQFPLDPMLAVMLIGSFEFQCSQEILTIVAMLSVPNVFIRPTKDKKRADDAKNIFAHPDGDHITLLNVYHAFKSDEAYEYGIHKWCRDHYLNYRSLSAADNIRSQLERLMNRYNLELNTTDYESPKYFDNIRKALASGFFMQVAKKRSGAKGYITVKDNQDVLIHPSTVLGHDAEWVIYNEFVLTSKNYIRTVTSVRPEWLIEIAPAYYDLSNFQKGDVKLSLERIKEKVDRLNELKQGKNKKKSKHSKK
Sequence of Prp43p;Ntr1p (1-120) (Saccharomyces cerevisiae (Q06411 1-120, chain 2 of 2): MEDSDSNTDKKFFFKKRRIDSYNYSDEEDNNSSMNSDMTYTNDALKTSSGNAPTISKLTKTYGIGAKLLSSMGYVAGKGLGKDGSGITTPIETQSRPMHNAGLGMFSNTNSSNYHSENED

Row | Binder | binding result
1 | B1 | binds
2 | B2 | binds
3 | B3 | binds
